Tests used:
Human DLL3-His [1] = molecular target: T1, Human DLL3-His (human, UniProt Q9NYJ7 27-492); experiment: SPR (ProteOn XPR36), bispecific captured on protein A/G, DLL3 as analyte, Example 4A
T1 construct: also called huDLL3-His; hu DLL3
T1 sequence: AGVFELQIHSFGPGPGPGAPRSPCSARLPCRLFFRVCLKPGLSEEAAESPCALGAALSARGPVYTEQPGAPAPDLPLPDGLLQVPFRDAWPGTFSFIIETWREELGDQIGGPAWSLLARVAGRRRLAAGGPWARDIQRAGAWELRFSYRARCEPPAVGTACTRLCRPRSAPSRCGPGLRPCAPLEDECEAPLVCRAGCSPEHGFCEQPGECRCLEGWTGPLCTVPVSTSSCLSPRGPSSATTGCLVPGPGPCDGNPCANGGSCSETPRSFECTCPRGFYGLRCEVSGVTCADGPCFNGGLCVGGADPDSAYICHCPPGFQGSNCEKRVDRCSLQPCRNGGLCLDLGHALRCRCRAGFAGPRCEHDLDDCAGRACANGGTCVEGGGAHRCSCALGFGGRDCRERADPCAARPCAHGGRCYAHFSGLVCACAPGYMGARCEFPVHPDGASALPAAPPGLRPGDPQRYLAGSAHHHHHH
Method: (§1) The binding affinity of purified DLL3/CD3 bispecific constructs for recombinant human and cyno DLL3-ECD and Fc-fusion proteins of human and cyno CD3 εγ subunits was determined by Surface Plasmon Resonance (SPR), using a ProteOn XPR36 instrument (Bio-Rad). The running buffer and all dilutions (except where stated) were done in PBS-T-EDTA. The GLM sensor chip (Bio-Rad) was normalized and pre-conditioned as per the manufacturer's recommendations. The sensor chip was activated with equal mixture of EDC/s-NHS in the horizontal direction for 300 sec at a flow rate of 30 ul/min and immobilized with protein A/G (20 ug/ml in 10 mM acetate pH 4.5) in the horizontal direction for 300 sec at a flowrate of 30 ul/min resulting in ˜5000 RU of protein A/G on the surface. The sensor chip was deactivated with 1M ethanolamine HCl in the horizontal direction for 300 sec at a flowrate of 30 μl/min.
(§2) For binding kinetic determination to DLL3, bispecific molecules were captured individually on the protein A/G surface vertically for 250 sec at a flowrate of 25 μl/min. The baseline was stabilized by injecting PBS-T-EDTA for 60 sec at a flowrate of 40 μl/min horizontally. The analyte (hu DLL3 or cy DLL3) was injected horizontally over the captured antibody for 600 sec at a flowrate of 40 μl/min and a dissociation for 2700 sec.
(§3) The inter spot (interactions with sensor surface) and blank (PBS-T-EDTA) were subtracted from the raw data.

Cyno DLL3-His [2] = molecular target: T2, Cyno DLL3-His (cynomolgus monkey, UniProt Q9NYJ7 27-492 (human entry)); experiment: as above
T2 construct: also called cy DLL3; recombinant cyno DLL3-ECD
T2 chain: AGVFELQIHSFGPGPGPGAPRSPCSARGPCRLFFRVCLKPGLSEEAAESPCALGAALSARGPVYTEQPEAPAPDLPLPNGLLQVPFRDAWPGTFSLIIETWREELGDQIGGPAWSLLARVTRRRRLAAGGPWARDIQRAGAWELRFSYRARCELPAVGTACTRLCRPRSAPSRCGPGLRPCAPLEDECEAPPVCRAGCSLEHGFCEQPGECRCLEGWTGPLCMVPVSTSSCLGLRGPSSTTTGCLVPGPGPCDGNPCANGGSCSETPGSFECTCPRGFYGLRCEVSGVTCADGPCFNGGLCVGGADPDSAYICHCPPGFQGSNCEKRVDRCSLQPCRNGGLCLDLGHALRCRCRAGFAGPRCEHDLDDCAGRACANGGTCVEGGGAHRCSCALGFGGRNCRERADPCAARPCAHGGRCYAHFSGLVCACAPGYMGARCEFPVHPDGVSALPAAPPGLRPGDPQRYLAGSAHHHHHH
Method: as §1, §2, §3

Cyno DLL3-His [3] = molecular target: T2, Cyno DLL3-His; experiment: SPR; ratio of the KD values for human and cyno DLL3
Method: as §1, §2, §3

Human CD3 E+G HuFc-6xHis [4] = molecular target: T3, Human CD3 E+G HuFc-6xHis (human); experiment: SPR (ProteOn XPR36), HuCD3E_HuCD3G-Fc amine-coupled, bispecific as analyte, Example 4B
T3 construct: also called hu CD3εγ-Fc
Procedure, shortened: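 Human CD3ε/γ-Fc fusion is amine-coupled to the chip at pH 4.5. Anti-DLL3/CD3 bispecifics are injected as analyte in PBS-T-EDTA at 30 μl/min, with 600 s association and 1800 s dissociation. Binding kinetics are measured by SPR.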

Human CD3 E+G HuFc-6xHis [5] = molecular target: T3, Human CD3 E+G HuFc-6xHis; experiment: SPR (ProteOn XPR36), CD3εγ-Fc amine-coupled, bispecific as analyte, equilibrium fit, Example 4A
Method: as §1
For binding kinetic determination to CD3, hu CD3εγ-Fc and cy CD3εγ-Fc (dissolved in pH 4.5 acetate) was immobilized directly onto the sensor surface through amine coupling for 140 sec at a flowrate of 30 μl/min vertically. The baseline was stabilized by injecting PBS-T-EDTA for 60 sec at a flowrate of 40 μl/min horizontally. The analyte (the bispecific molecule) was injected horizontally over the captured CD3εγ-Fc construct for 600 sec at a flowrate of 40 μl/min and a dissociation for 600 sec.
as §3

Human DLL3-His [6] = molecular target: T1, Human DLL3-His; experiment: SPR (ProteOn XPR36), bispecific captured on protein A/G, hu DLL3 as analyte, Example 4B
Method: The binding affinity of purified DLL3/CD3 bispecific constructs for recombinant human DLL3-ECD and Fc-fusion protein of human CD3 εγ subunits was determined by Surface Plasmon Resonance (SPR), using a ProteOn XPR36 instrument (Bio-Rad).
For binding kinetic determination to DLL3, anti-DLL3/CD3 molecules were captured individually on the protein A/G surface vertically for 200 sec at a flowrate of 30 μl/min. The baseline was stabilized by injecting PBS-T-EDTA for 60 sec at a flowrate of 30 μl/min horizontally. The analyte (hu DLL3) was injected horizontally over the captured antibody for 300 sec at a flowrate of 30 μl/min and a dissociation for 1800 sec.

[7] = molecular target: T4, trypsin inhibitor from glycine max soybean (Glycine max (soybean)); experiment: SPR (Biacore T200), trypsin inhibitor on CM5 chip, sample at 1 µM
T4 construct: also called Tryp
From the text: To prepare the surface for the non-specific binding experiment, chicken egg white lysozyme and trypsin inhibitor from glycine max soybean were coupled manually to a series S CM5 chip with the surface density of 3000-5000 RU using the amine coupling kit according to the manufacture instructions.

T3 sequence (chain, as listed by the source limits assumed): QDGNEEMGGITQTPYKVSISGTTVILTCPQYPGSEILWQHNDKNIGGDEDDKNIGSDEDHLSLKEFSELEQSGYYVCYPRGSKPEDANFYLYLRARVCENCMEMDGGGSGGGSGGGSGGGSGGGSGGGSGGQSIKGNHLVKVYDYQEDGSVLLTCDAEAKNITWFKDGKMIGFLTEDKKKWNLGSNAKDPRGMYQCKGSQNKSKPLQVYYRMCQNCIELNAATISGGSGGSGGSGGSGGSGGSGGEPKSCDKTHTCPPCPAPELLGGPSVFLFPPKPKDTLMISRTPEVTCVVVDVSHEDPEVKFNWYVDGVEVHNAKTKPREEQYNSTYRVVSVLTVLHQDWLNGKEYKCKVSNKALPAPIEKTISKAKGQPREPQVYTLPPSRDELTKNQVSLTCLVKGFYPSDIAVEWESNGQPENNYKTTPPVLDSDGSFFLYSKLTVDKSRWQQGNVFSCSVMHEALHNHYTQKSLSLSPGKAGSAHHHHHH
T4 sequence (P01070 25-205): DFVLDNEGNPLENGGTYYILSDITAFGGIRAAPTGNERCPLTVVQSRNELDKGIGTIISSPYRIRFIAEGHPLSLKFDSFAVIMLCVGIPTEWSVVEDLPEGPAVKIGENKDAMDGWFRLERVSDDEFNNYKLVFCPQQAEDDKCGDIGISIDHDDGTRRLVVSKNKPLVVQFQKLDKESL

B1: DLL3#3/CD3#3 (bispecific antibody, human IgG1, kappa, lambda, L234A L235A)
chain 1: DIQMTQSPSAMSASVGDRVTITCRASQGISNYLVWFQQKPGKAPKRLIYAVSSLYSGVPSRFSGSGSGTEFTLTISSLQPEDFATYYCLQHDSYPYTFGQGTKLEIKRTVAAPSVFIFPPSDEQLKSGTASVVCLLNNFYPREAKVQWKVDNALQSGNSQESVTEQDSKDSTYSLSSTLTLSKADYEKHKVYACEVTHQGLSSPVTKSFNRGECGGGGSEGKSSGSGSESKSTEGKSSGSGSESKSTGGGGSQVQLVQSGAEVKKPGASVKVSCKASGYTFTSYYVHWVRQAPGQGLEWMVIINPGGGTTSYAQKFLGRVTMTRDTSTNTVYMELKSLRSEDTAVYYCARGEAVTGNYFYYGMDVWGQGTTVTVSSASTKGPSVFPLAPSSKSTSGGTAALGCLVKDYFPEPVTVSWNSGALTSGVHTFPAVLQSSGLYSLSSVVTVPSSSLGTQTYICNVNHKPSNTKVDKRVEPKSCDKTHTCPPCPAPEAAGGPSVFLFPPKPKDTLMISRTPEVTCVVVDVSHEDPEVKFNWYVDGVEVHNAKTKPREEQYNSTYRVVSVLTVLHQDWLNGKEYKCKVSNKALPAPIEKTISKAKGQPREPQVYTLPPSREEMTKNQVSLWCLVKGFYPSDIAVEWESNGQPENNYKTTPPVLDSDGSFFLYSKLTVDKSRWQQGNVFSCSVMHEALHNHYTQKSLSLSPG
chain 2: EAVVTQEPSLTVSPGGTVTLTCRSSTGAVTTSNYANWVQEKPGQLPRGLIGGTNKRAPWVPARFSGSLLGGKAALTLSGAQPEDEAEYFCALWYSNLWVFGGGTKLTVLGQPKAAPSVTLFPPSSEELQANKATLVCLISDFYPGAVKVAWKADGSPVNTGVETTTPSKQSNNKYAASSYLSLTPEQWKSHRSYSCQVTHEGSTVEKTVAPAECSGGGGSEGKSSGSGSESKSTEGKSSGSGSESKSTGGGGSEVQLVESGGGLVQPGGSLKLSCAASGFTFNTYAMNWVRQAPGKGLEWVARIRSKYANYATYYADSVKDRFTISRDDSKNTAYLQMNNLKTEDTAVYYCVRHGNFGNSYVSWFAYWGQGTLVTVSAASTKGPSVFPLAPSSKSTSGGTAALGCLVKDYFPEPVTVSWNSGALTSGVHTFPAVLQSSGLYSLSSVVTVPSSSLGTQTYICNVNHKPSNTKVDKRVEPKSCDKTHTCPPCPAPEAAGGPSVFLFPPKPKDTLMISRTPEVTCVVVDVSHEDPEVKFNWYVDGVEVHNAKTKPREEQYNSTYRVVSVLTVLHQDWLNGKEYKCKVSNKALPAPIEKTISKAKGQPREPQVYTLPPSREEMTKNQVSLSCAVKGFYPSDIAVEWESNGQPENNYKTTPPVLDSDGSFFLVSKLTVDKSRWQQGNVFSCSVMHEALHNRFTQKSLSLSPG
notes: Heterodimer of one DLL3 chain and one CD3 chain (scFab-Fc, knob-in-hole)
B1 was tested, and the Kd (Human DLL3-His [1]) was < 0.01 nM, the Kd (Cyno DLL3-His [2]) was < 0.01 nM and the “Affinity gap KD hu/cyno DLL3” value (Cyno DLL3-His [3]) was 1. It also gave a Kd (Human CD3 E+G HuFc-6xHis [4]) of 4 nM, a Kd (Human CD3 E+G HuFc-6xHis [5]) of 68 nM and a Kd (Human DLL3-His [6]) of 0.116 nM. For the same binder, the “Non-specific binding (RU)” value [7] was 28 RU.

Source: patent US20220251236A1 (Boehringer Ingelheim, published 2022)
